Six molecules from article PMC4957051, “Molecular Mechanism of Z α1-Antitrypsin Deficiency*” (The Journal of Biological Chemistry, 2016) can be followed below.

First the molecules themselves.
B1: α1-AT-S292C-T339C-E342A, reduced form (natural protein, human, UniProt P01009 25-418, looked up)
chain: EDPQGDAAQKTDTSHHDQDHPTFNKITPNLAEFAFSLYRQLAHQSNSTNIFFSPVSIATAFAMLSLGTKADTHDEILEGLNFNLTEIPEAQIHEGFQELLRTLNQPDSQLQLTTGNGLFLSEGLKLVDKFLEDVKKLYHSEAFTVNFGDTEEAKKQINDYVEKGTQGKIVDLVKELDRDTVFALVNYIFFKGKWERPFEVKDTEEEDFHVDQVTTVKVPMMKRLGMFNIQHSKKLSSWVLLMKYLGNATAIFFLPDEGKLQHLENELTHDIITKFLENEDRRSASLHLPKLCITGTYDLKSVLGQLGITKVFSNGADLSGVTEEAPLKLSKAVHKAVLCIDAKGTEAAGAMFLEAIPRSIPPEVKFNKPFVFLMIEQNTKSPLFMGKVVNPTQK
notes: α1-antitrypsin (α1-AT), human cDNA in pQE31, Pittsburgh backbone (M358R and C232S) with S292C, T339C and E342A; Same chain as m6, with the engineered disulfide reduced; also called α1-AT-SS-E342A (reduced); source: E. coli, purified; reduced form prepared
B2: α1-AT E342A (Pittsburgh backbone) (natural protein, human, UniProt P01009 25-418, looked up)
chain: EDPQGDAAQKTDTSHHDQDHPTFNKITPNLAEFAFSLYRQLAHQSNSTNIFFSPVSIATAFAMLSLGTKADTHDEILEGLNFNLTEIPEAQIHEGFQELLRTLNQPDSQLQLTTGNGLFLSEGLKLVDKFLEDVKKLYHSEAFTVNFGDTEEAKKQINDYVEKGTQGKIVDLVKELDRDTVFALVNYIFFKGKWERPFEVKDTEEEDFHVDQVTTVKVPMMKRLGMFNIQHSKKLSSWVLLMKYLGNATAIFFLPDEGKLQHLENELTHDIITKFLENEDRRSASLHLPKLSITGTYDLKSVLGQLGITKVFSNGADLSGVTEEAPLKLSKAVHKAVLTIDAKGTEAAGAMFLEAIPRSIPPEVKFNKPFVFLMIEQNTKSPLFMGKVVNPTQK
notes: α1-antitrypsin (α1-AT), human cDNA in pQE31, Pittsburgh backbone (M358R and C232S) with E342A; also called E342A mutant; source: E. coli, purified from the soluble fraction of the lysate

One data set addresses activated factor X (FXa). The experiment in a line: rates and stoichiometries of protease inhibition; as described previously (ref. 48); each value the average of three independent measurements.
The target of the next data set is thrombin. The description is as above.
Data set [1] deals with the molecule itself. The experiment in a line: native gel or EMSA; thermal stability: α1-AT variants incubated at various temperatures in 10 mM Tris-HCl, pH 7.4, 0.1 M NaCl, 0.5 M urea for 30 min, then native gel.
Data set [2] has as its target T1, recombinant wild type α1-antitrypsin (α1-AT Pittsburgh backbone, M358R and C232S) (human, UniProt P01009 25-418, M358R | C232S).
T1 construct: α1-antitrypsin (α1-AT), human cDNA in pQE31, Pittsburgh backbone (M358R and C232S); probably the mature protein behind the tag; also called Wt; WT; source: E. coli, purified from the soluble fraction of the lysate
The experiment in a line: native gel or EMSA; peptide annealing: α1-AT variants (0.5 mg/ml) incubated with 100-fold molar excess of 6-mer peptide at 37 °C for different time intervals, then 8% native gel with 7 M urea; the binary complex resists urea. As to conditions: both partners purified. On the technique in general: A gel shift assay detects complexes by their altered migration in electrophoresis.

The target in data set [3] is T2, α1-AT E342C (Pittsburgh backbone) (human, UniProt P01009 25-418, M358R | C232S | E342C).
T2 construct: α1-antitrypsin (α1-AT), human cDNA in pQE31, Pittsburgh backbone (M358R and C232S) with E342C; also called E342C mutant; source: E. coli, purified from the soluble fraction of the lysate
The data set is described as above. To be noted: both partners purified.

In data set [4] the target is B2. The description is as above. As to conditions: both partners purified.
Data set [5] deals with T3, α1-AT-S292C-T339C-E342A, oxidized form (disulfide between s5A and s6A) (human, UniProt P01009 25-418, M358R | C232S | S292C | T339C | E342A, disulfide bond linking s5A and s6A (Cys-292 and Cys-339)).
T3 construct: α1-antitrypsin (α1-AT), human cDNA in pQE31, Pittsburgh backbone (M358R and C232S) with S292C, T339C and E342A; Same chain as m7, with the engineered disulfide formed; also called α1-AT-SS-E342A (oxidized); source: E. coli, purified; oxidized form prepared
The description is as above. As to conditions: both partners purified.

The target in data set [6] is B1. The description is as above. To be noted: both partners purified.

In the case of “α1-AT E342C (Pittsburgh backbone) (from UniProt P01009 25-418) (natural protein)”, the SI (stoichiometry of inhibition) with activated factor X (FXa) and with thrombin was 3 throughout.

The molecule “recombinant wild type α1-antitrypsin (α1-AT Pittsburgh backbone, M358R and C232S) (from UniProt P01009 25-418) (natural protein)” gave an SI (stoichiometry of inhibition) with thrombin of 1.6.

For the molecule “α1-AT E342C-mod (E342C with Cys-342 chemically converted to a lysine-like residue) (from UniProt P01009 25-418) (natural protein)”, the SI (stoichiometry of inhibition) with activated factor X (FXa) and with thrombin was 3.4 each time.

In the case of B1, the binding result in data set [1] is “binds”.

Consider B2, for which, in data set [1], the binding result was “binds”.

Regarding FLEAIG [6-mer peptide (FLEAIG) derived from the P7 to P2 sequence of the α1-AT reactive loop], the binding result in data set [2], in data set [3], in data set [4], in data set [5] and in data set [6] was “binds” each time.
